Laboratory results from a protein production outcome set (Wang et al. 2014).

Test: label from the status in PepcDB records

Row | Sequence | protein production
1 | MSLNRHFTVSVFIVCKDKVLLHLHKKAKKMLPLGGHIEVNELPEEACIREAKEEAGLNVTLYNPIDINLKKSCDLSGEKLLINPIHTILGDVSPNHSHIDFVYYATTTSFETSPEIGESKILKWYSKEDLKNAHNIQENILVMATEALDLLEGHHHHHH | not failed
2 | MGSVAARDYVGIATKYAEAAVADKGRKRHGRWIRLAAKRFLDDLKRARRRGTPFFFDEWHANDACDFIEKLPHVEGKWETPTIVMHPSHVFFVVQLFGFRRRDAIKVEGWGDDDTFHPRRFTSALFAVARKNAKSTLASAILLYCLCCEPEEGAQVISAATTFDQASIIFRASKRMVEKTPDLAEAFGLATWAKSISRFETGSSYKAVHAKASTQDGLNPSHTGLDEIHAHKTADLLNVLQSAAGARANPLWLFTTTEGYTNAGPWAEIRGFVFALLRGVLGTQADHFLALFYALDNEDKSAKITQDDEFDESKWIKANPLLDVNPHLKAAIRKEAVEAKQMPSKLAEFRIKRCNRPASTASGWVDLTKWAKCGGAVDLDWLAGYPCWGGLDLASTTDIAAFRLLWLVEGVWYTHGWRWVPSEAVKQRTERATVPYAGWVEAGYLLQTEGDVTDYSVIERDILAAVQRFDPQQIAYDAWNAADLVNRLVAASVPMVQFVQGTKSYHPAMQALELAYVGGKLVHGGDPVLAWCASNLVARRDVNLSMAPDRKRSADKIDDMAALLMAMGLAVASDDAEDLSDFFNNAVIGLEHHHHHH | not failed
3 | MTHVTLRSEFETLIDPYAPVAQVGTGFDFTEGPIWHPIDHYLLFSDMPGDVRRRWDARRGMAEVKRPSNKCNGMTYDAELNLIVCEHATSSLIRERPDGRREVLASHFGGQELNSPNDVCVHSSGAIYFSDPWYGRMPVYGVERPRQLGFQGVYRVMPGGEPKLVVDRNLFDQPNGLCFSPDERLLYVNDTVQALIRVFDVNADGTLSNARVFASSIKSELEPGLPDGMKCDQHGNVWVTAPGGVWVYSPRGELLGKVRVPELVANLAWGGPDFRTLYLTSTHSVYAIPTRVGPRHEPYMSGRRGGAGASAGPAAAAPILTDGEMRLDPQRCAMIIQDLQNDVIMDGGAFDGSGAPAHAKQQHVVENVRRLAEAARARGVAIIHVWFVVEPGAPGVTLNAPLFEGLVDSKAMVRGSWGAAPVSGLEPRPGDFVVEKMRMSAWEGTRLETILKATGRDMIINTGAWTNMSVEHTARTGADKGYFMIVPEDCCSTMNADWHSASINFAMQNVAIVTRADAVIRALG | failed
4 | MERMMNKRILKGTLTAIAALMSAHAFAGQEVTVYTAFETDLLAKYKSAFEKENPDIEIKWVRDSTGIMTAKLLAEKDNPRAEVVWGLAGSSMALLKDQGVLKPYTPKGANELRANLNDPQAQQAWYGNDAFFNAVCFNEAVAKQLNLPKPQSWEDLTNPVYKGHIAMPNPASSGTGYMQVSAWLQNMGEDKAWDYMQRLDQNIAHYTHSGSKPCVQAGMGEVAIGISMATRGAKLKTQGAPLDVIVPNGIGWESEAVGLVKESDAAKRVVDWSVSKAANELYIESYPIVGHQDVSKQVPNYPNVEKVMAKMDFTQMGVDRARVLQTWSEKFDAKSEPKS | failed
5 | SVDVEFQKAVEDILRKNIKQGKQYAGSDLFDRAFVVAMDPYSGEVLALAGQKLNDKGEFDDYSLGTFTTAYAMGSAVKGSTILGGIMDGAISNKTVFTDQPIALKGTKPKSSWFNRTGAGNRPLDPVGALEISSNSYMYQVAMKMGGAKYVPNGPLRAPLSTFDDMRYYYNQFGLGVKTGIDLPGEQVGYKGDDQTIGKILDFAIGQYDSYTPLQMAQYVSTIANGGSRIAPSMVKEIRNPSTNGDSVGTLATANEPKVLNKIGVSDNDIKTVQKGFYEVTHGSTGTARTVFTSSDYDVAGKTGTADAFYDGPKEGNKMASVWNTTFVGYAPVKKPEIAISVVVPWIYRPYGTDQKTNMKISKEVFDKYFELKKERAESNKDASKVEQPINNKEAAAKAQSEQTEN | failed
6 | SKGMALRSVGGMVIESPRNETEHWLLETVGRQAQQAGIGMPTVAIYDSADINAFATGAKRDDSLVAVSTGLLHNMTRDEAEAVLAHEVSHIANGDMVTMTLMQG | not failed
7 | MTRYALLVRGINVGGKNKVVMAELRQELTNLGLEKVESYINSGNIFFTSIDSKAQLVEKLETFFAVHYPFIQSFSLLSLEDFEAELENLPAWWSRDLARKDFLFYTEGLDVDQVIATVESLELKDEVLYFGKLGIF | failed
8 | MASLISFWLFFALSLLQPQQRQFLASKPWQDWLLDGVSLGIQGAIIPLLQLLLVINFYSLIIPHWQHSFNLFAGGQFLLGFVAIDYVYYWSHRALHSKLLFPIHQVHHTVSQMDMVSCARNTFWSSLFLPYVWLNSLIIYLLHDARGYILAISCTYLLDLWRHSSLIINKKCWLHDCLNSWLILPQDHGLHHHQIGKGNFGANLKLWDKIHGTYLKNTLPNQLSISSGMGIKLELTLWQKLFWPLT | failed
9 | MSSFLRPAVSGQDPFTTGNYRAISSHLAITPPVSVVIPAMNEAENLPYVFKSLPDWIHEVVLVDGNSTDGTVEVARELWPDVKVVEQRGKGKGDALITGFEACTGDIIVMVDADGSADGQEIVSYVSALVSGADFAKGSRFANGGGTSDMTPIRKLGNRVLCAAVNAKFGARYTDLCYGYNAFWRHCLDQIDLDCTGFEVETLMNIRVVKAGLKVQEIPSHEYLRIHGASNLRAVRDGLRVLKVILKERSNRRALRSRPHAMQLNSGQGEVSLEHHHHHH | not failed
10 | MPAIEVGETFTETRTFRPEDVDQFTALSGDDQPRHTEPDGDGRRMVQGLLTASLLTSIGGDLEVLASRMDLQFQRPVYTGETLVCELTVVSADPHTDGGVALVGDVAVRRVNRDDNSGQADTAAPNSADSAPAGTVVLEATVEGLIRE | failed
11 | QLSSFETCAEKEESANTTESAIFEYHCEMSFDPNLLHNNGHNGYPNGTSAALRETGVIEKLLTSYGFIQCSERQARLFFHCSQYNGNLQDLKVGDDVEFEVSSDRRTGKPIAVKLVKIKQEILPEERMNGQVVCAVPHNLESKSPAAPGQSPTGSVCYERNGEVFYLTYTPEDVEGNVQLETGDKINFVIDNNKHTGAVSARNIMLLKKKQARCQGVVCAMKEAFGFIERGDVVKEIFFHYSEFKGDLETLQPGDDVEFTIKDRNGKEVATDVRLLPQGTVIFEDISIEHFEGTVTKVIPKVPSKNQNDPLPGRIKVDFVIPKELPFGDKDTKSKVTLLEGDHVRFNISTDRRDKLERATNIEVLSNTFQFTNEAREMGVIAAMRDGFGFIKCVDRDVRMFFHFSEILDGNQLHIADEVEFTVVPDMLSAQRNHAIRIKKLPKGTVSFHSHSDHRFLGTVEKEATFSNPKTTSPNKGKEKEAEDGIIAYDDCGVKLTIAFQAKDVEGSTSPQIGDKVEFSISDKQRPGQQVATCVRLLGRNSNSKRLLGYVATLKDNFGFIETANHDKEIFFHYSEFSGDVDSLELGDMVEYSLSKGKGNKVSAEKVNKTHSVNGITEEADPTIYSGKVIRPLRSVDPTQTEYQGMIEIVEEGDMKGEVYPFGIVGMANKGDCLQKGESVKFQLCVLGQNAQTMAYNITPLRRATVECVKDQFGFINYEVGDSKKLFFHVKEVQDGIELQAGDEVEFSVILNQRTGKCSACNVWRVCEGPKAVAAPRPDRLVNRLKNITLDDASAPRLMVLRQPRGPDNSMGFGAERKIRQAGVID | not failed
12 | SLENAGSRPFLADFNGFSYLELKGLHTFERDLGEKMALEMVFLARGPSGLLLYNGQKTDGKGDFVSLALHNRHLEFRYDLGKGAAIIRSKEPIALGTWVRVFLERNGRKGALQVGDGPRVLGESPVPHTMLNLKEPLYVGGAPDFSKLARGAAVASGFDGAIQLVSLRGHQLLTQEHVLRAVDVAPFAG | not failed
13 | MNGAVDLVIRFLLFAMLHSIAALPGVQQRIGNMFPRGFRFYRAAYNLAALVTFGWVMAAWPLSPVIYLVPGSASLAFHAVQAFTLLQMIRCVSRTGMADFLGIRHPSREDAAHELVTTGCYGTVRHPLYTLAMVFCLFNPLMTVKWLLFTLMAGGYFVMGAVVEERRLEREFGDAYRSYRRQVPMLIPRRRKPVAKE | failed
14 | MIVPYSVEDILKDGCFLERAEIDRLLDRLRTKKNLILQGPPGTGKTWLAKRLAFALMGQKDDSKVRAVQFHPNLSYEDFVRGWRPTGEGKLSLADGVFMEAIKAASKDPSSKFVVVIEEINRGNPAQIFGELLTLLEAGKRTPNEALELCYPDADGKRRPVHIPENLYVVGTMNIADRSLALVDLALRRRFAFVGLEPRLGQVWRDWVVKECAVDPLEHHHHHH | failed
15 | MPAVARIDPKTIFTPDEWARLTHRSSARGLWLVAHAWGCIALAVALVTIWPNPLTWLIAVMIVGTRQLGLAILMHEAAHGGLHCNPKLNEWIGQWLCAVPVGADLPAYRRYHLQHHKYTQQPEDPDLVLSAPFPISKDSFVRKAIRDLTGQTFVKQRLPALKALFAPADSGAPKHDSFVASGKARTQRFLAANAVLLALFWLAGAGVWFVGVWLVAMATWLPLVTRVRNIAEHACTSTGADPFSQARTTLANPIERALIAPYWVNYHAEHHLFMYLPCYNLPEAHRLLRDKGLIDRVTVAPSYRDVLKLATTRPRAVAAE | failed
16 | MQIVGSVALMLWGIRLVRTGFIRAFGGSLRHYLGLAISGRLTSFGVGLAITVFLQSSTATALIISSFASKGLVQTPAALAVMLGADVGTSISAQILSFNLSWLAYAAILIGFFLHGRGGRFATRQIGRAIVGLGMVLLALSLIRMSSQPLREADGLAYVLSALEGEVLLTLFLMAVLTWLVHSSLAVVLLTASLASAGIVPTGTGLVMILGANIGGTIPPIIATLSTGPQSQHAALGNAGFKLLASLLVLPFLPWVGERLQSFGGDAQVLVNFHLTFNLLVATLFLPWVQTAAALLARVFPDTGAGAVEPVTKYLDKELITSPALALTSATRELYRVNERIEDSLALLSGGIAARDQVDVQGAQENRARVAAMLEEFKFYLTDITREEISESDSAKAMNLLLIATNLGHVSELVTNAVELTASTSHEQIRFSEAGTAELLEMLELIHQGIRLALSAALLGDAKVRKTLQKGRKELERMVDESRQAHFSRLAEGTLSSISTTSLHNELLRDFSRIYYHIYTASKIGGRDSSVMIRG | failed
17 | MLTVTFTVSNTGDRAGAAVPQVYPGFPNTTIDRCVRELKAFRRVELEPGQRQTVTVALTRRDLSYWDILPHPLRSYAVGSILEHHHHHH | failed
18 | MVAATSQNTFDSPRSPLYNFTMDIRPLSDVAGVILVGGRSRRMGRDKALIPLGGKPLVERVIDAFRPLFERILLVGDRGERFASYGLPVFPDIHPGSALGGLYTGLVRAGTPHVFVSACDVPWPDPRVIARLCSLREGFDVVVPRTVGGSEPLFAVYGTGCLPAMERMLREGNYRIYDFYPEVRTRYVEQAELADLVTPARTFVNVNTPEEFETIRNREEGMAIKAVSFVAKSGTGKTTLLEKVIAELKGRGYRIGVIKHDAHRFDIDHPGKDSHRLAAAGADTMLIASPEKLALVKKYDESPPLDELLATYFGDVDIVLTEGFKKSSLPKIEVHRMERSATLLCRGEEHDPTLVAVASDAALALDVPVFDLNNPAQVADFVERTFLAAGAALEHHHHHH | not failed
19 | MPKVTVSIKVVPAVEDGRLHEVIDRAIEKISSWGMKYEVGPSNTTVEGEFEEIMDRVKELARYLEQFAKRFVLQLDIDYKAGGITIEEKVSKYR | not failed
20 | MDADNTAHLIYLSLLGAALVFWFISHNRASLGKTLQMALAWVFIFVGVIAVVGLWGDIRSTVAGTPRISVSENRVEIPRSPDGHYYATLIIEDKPLRFLVDTGASQVVLSHADAERLGIDTSALNYFGRAYTANGEVRTAPVKLGRVQLGGFTDQGVTAWVNEGEMSESLLGMDYLQRFRSIEIAGGTLVLAR | failed
